From patent publication JP2019156807A
Values joined by “and” are separate entries in the source; they are usually repeats but may differ in a detail not shown here. Equal entries are not always repeated.

B1: 抗ヒトCD26モノクローナル抗体U16−3 (antibody, V domains shown)
VH: EVKLVESGGGLVQPGGSLKLSCATSGFTFSDFYMYWVRQTPEKRLEWVAYISKGGGTTSYPDTVKGRFTISRDNAKNTLYLQLSRLKAEDSAMYYCARRMDYWGQGTSVTVSS
VL: DVQMNQSPSSMYASLGERVTITCKASQDINSYLSWFQQKPGKSPKTLIYRANRLVDGVPSRFSGSGSGQDYSLTISSLDYEDMGIYYCLQYDEFPLTFGAGTKLELK
B2: 抗ヒトCD26モノクローナル抗体U38−8 (antibody, V domains shown)
VH: EVKLVESGGGLVQPGGSLKLSCATSGFTFSDFYMYWVRQTPEKRLEWVAYISKGGGTTSYPDTVKGRFTISRDNAKNTLYLQLSRLKAEDSAMYYCARRMDYWGQGTSVTVSS
VL: DVVVTQTPLSLPVSLGDQASISCRSSQGLEHSSGNTYLHWYLQRPGQSPKLLIYKVSNRFSGVPDRFSGSGSGTDFTLKISRVEAEDLGVYFCSQSTPVPTWTFGGGTKLEIK

Target: 変性ヒトCD26(ホルマリン固定パラフィン包埋した細胞・組織中、又はSDS/DTT煮沸処理した細胞溶解物中のヒトCD26) (human) (UniProt P27487)
Chain of UniProt P27487 (P27487 whole entry): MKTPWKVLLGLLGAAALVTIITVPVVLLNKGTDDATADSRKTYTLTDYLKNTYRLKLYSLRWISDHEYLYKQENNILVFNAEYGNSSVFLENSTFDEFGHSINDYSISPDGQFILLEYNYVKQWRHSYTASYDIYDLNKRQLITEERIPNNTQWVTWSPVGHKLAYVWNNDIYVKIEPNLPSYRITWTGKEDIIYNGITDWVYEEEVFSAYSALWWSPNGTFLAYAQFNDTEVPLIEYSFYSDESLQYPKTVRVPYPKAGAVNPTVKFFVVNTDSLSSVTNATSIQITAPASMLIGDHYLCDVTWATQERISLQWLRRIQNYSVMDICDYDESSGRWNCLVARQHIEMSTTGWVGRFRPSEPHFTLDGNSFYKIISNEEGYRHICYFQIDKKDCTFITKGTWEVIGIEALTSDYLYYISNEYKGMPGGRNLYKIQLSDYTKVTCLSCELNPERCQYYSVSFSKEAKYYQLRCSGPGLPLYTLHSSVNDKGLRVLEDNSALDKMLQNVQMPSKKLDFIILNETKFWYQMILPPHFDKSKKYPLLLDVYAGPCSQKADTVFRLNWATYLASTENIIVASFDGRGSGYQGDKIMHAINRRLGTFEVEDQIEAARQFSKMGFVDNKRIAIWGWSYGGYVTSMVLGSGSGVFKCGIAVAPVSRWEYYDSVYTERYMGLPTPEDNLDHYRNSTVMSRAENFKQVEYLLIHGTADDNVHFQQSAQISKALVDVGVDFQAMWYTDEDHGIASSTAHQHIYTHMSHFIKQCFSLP
Assay: immunostaining of FFPE samples, titration of purified antibody (data not shown)

Binder	免疫染色の最適濃度
B1	0.1 μg/mL and 0.2 μg/mL
B2	0.5 μg/mL
